From US20150198603A1 (TORAY INDUSTRIES, published 2015)

Legend:
[1] = molecular target: T1, human CAPRIN-1 as expressed on human breast cancer cell line MDA-MB-231V and in human cancer tissues (human, UniProt Q14444 2-709); test: flow cytometry on MDA-MB-231V cells expressing CAPRIN-1
T1 construct: whole, on cells; Endogenous protein on cells (flow cytometry) or in paraffin tissue sections (immunohistochemistry); also called CAPRIN-1 on the surface of breast cancer cells; CAPRIN-1 in the breast cancer tissues
T1 sequence (looked up): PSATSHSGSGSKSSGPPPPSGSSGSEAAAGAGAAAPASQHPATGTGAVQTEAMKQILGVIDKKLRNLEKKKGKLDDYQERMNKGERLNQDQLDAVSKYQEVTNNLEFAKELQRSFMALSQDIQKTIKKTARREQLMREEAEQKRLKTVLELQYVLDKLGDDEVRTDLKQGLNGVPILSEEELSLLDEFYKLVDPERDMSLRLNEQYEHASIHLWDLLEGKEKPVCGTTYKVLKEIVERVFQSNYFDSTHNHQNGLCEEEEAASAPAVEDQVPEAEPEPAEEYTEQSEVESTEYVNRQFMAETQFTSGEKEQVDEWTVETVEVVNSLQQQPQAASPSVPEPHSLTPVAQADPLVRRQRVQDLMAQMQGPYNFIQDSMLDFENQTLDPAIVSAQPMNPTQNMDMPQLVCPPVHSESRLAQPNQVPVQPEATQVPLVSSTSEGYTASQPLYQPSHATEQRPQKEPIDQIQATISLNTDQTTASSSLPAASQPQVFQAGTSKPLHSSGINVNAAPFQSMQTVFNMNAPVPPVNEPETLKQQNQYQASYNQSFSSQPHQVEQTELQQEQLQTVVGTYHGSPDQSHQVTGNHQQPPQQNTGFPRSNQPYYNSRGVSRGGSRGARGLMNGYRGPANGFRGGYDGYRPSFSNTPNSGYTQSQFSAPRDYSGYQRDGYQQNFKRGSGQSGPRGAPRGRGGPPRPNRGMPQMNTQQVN
Protocol: Next, these monoclonal antibodies were screened for antibodies reactive with the surface of breast cancer cells expressing CAPRIN-1. Specifically, 5×10⁵ cells of a human breast cancer cell line MDA-MB-231V were centrifuged in a 1.5-mL microcentrifuge tube. 100 μL of the culture supernatant of each hybridoma obtained above was added thereto and left standing for 1 hour on ice. After washing with PBS, FITC-labeled goat anti-chicken IgG (H+L) antibodies (SouthernBiotech) diluted 30-fold with PBS containing 0.1% FBS were added thereto and left standing for 1 hour on ice. After washing with PBS, the fluorescence intensity was measured using FACSCalibur (Becton, Dickinson and Company). On the other hand, the same operation as above was performed using a medium for hybridoma culture to prepare a control sample. As a result, 1 monoclonal antibody (chicken anti-human CAPRIN-1 monoclonal antibody #11) having stronger fluorescence intensity than that of the control, i.e., reactive with the surface of breast cancer cells expressing CAPRIN-1, was selected.

[2] = molecular target: T2, peptide consisting of the amino acid sequence shown in SEQ ID NO: 66 (partial CAPRIN-1 sequence) (human); test: told from the digestion and MS/MS experiment done with #12
T2 peptide: QQPQAASPSVPE
Protocol: The cancer cell surface-reactive mouse-chicken chimeric anti-human CAPRIN-1 monoclonal antibody #12 obtained in the paragraph (4) was used to identify a CAPRIN-1 epitope region recognized thereby. 100 μg of recombinant CAPRIN-1 proteins was dissolved in a […] dissolving buffer and reacted with the monoclonal antibody #12. To this solution, a digestive enzyme trypsin or chymotrypsin was added, followed by digestion reaction at a proper temperature. After the reaction, a protein G Sepharose carrier was added thereto, then reacted, and precipitated by centrifugation operation. After removal of the supernatant, the carrier was washed with a dissolving buffer and PBS and dissolved in 0.1% formic acid, and the supernatant was recovered. The recovered supernatant sample was applied to a reverse-phase column (HLB Extraction Cartridge (Waters-OASIS)) to obtain an antibody-free sample solution. The obtained sample was subjected to reverse-phase liquid chromatography (Chromatography Nanosytem (KYA Technologies Corp.)) to recover a solution containing only peptides. The solution was introduced to a tandem-type mass spectrometer Quadrupole-TOF Mass Spectrometer (Waters-MicroMass) and analyzed by MS/MS to detect the peptides contained in the sample. […]

[3] = molecular target: T3, human CAPRIN-1 having the amino acid sequence shown in SEQ ID NO: 2 (recombinant, as prepared in Example 3 of … (human, UniProt Q14444 1-709)); test: ELISA, plate coated with 1 µg/mL CAPRIN-1, hybridoma supernatant
T3 construct: limits and tags of the recombinant construct are described only in WO2010/016526; also called recombinant CAPRIN-1; CAPRIN-1 solution
T3 sequence: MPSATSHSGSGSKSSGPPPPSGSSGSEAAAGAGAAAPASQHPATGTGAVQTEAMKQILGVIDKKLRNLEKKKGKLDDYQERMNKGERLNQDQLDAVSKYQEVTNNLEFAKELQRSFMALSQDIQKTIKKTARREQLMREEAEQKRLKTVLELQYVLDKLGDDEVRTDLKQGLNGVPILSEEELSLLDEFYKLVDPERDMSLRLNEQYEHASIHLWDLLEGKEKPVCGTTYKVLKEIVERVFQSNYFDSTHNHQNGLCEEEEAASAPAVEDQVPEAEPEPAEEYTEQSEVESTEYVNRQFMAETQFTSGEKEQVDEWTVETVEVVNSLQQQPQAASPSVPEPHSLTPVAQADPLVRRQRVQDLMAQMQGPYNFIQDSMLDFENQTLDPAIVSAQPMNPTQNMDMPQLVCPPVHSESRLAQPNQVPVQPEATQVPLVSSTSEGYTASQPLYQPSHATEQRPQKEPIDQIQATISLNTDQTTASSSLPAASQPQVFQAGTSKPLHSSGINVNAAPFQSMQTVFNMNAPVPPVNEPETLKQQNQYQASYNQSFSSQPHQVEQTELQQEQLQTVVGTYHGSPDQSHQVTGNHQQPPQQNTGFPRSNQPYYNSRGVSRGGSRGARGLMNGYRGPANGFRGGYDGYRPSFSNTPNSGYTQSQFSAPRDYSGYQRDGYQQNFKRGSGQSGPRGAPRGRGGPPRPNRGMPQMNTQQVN
Protocol: The prepared hybridomas were screened with the binding affinity of antibodies produced by the hybridomas against CAPRIN-1 as an indicator. The 1 μg/mL CAPRIN-1 solution was added to a 96-well plate at 100 μL/well and left standing at 4° C. for 18 hours. Each well was washed three times with PBS-T. Then, a 0.5% bovine serum albumin (BSA) solution (Sigma-Aldrich Corp.) was added thereto at 400 μL/well and left standing at room temperature for 3 hours. The solution in each well was discarded, and each well was washed three times with 400 μL of PBS-T. Then, the culture supernatant of each hybridoma obtained above was added thereto at 100 μL/well and left standing at room temperature for 2 hours. Each well was washed three times with PBS-T. Then, HRP-labeled anti-chicken IgY antibodies (Sigma-Aldrich Corp.) diluted 5000-fold with PBS were added thereto at 100 μL/well and left standing at room temperature for 1 hour. Each well was washed three times with PBS-T. Then, a TMB substrate solution (Thermo Fisher Scientific Inc.) was added thereto at 100 μL/well and left standing for 15 to 30 minutes to cause color reaction. […] The absorbance was measured at 450 nm and 595 nm using an absorption spectrometer. As a result, several hybridomas producing antibodies having high absorbance were selected as candidate lines of the hybridoma of interest.

binding result [1]: binds | binding result [2]: binds | binding result [3]: binds
B1: chicken anti-human CAPRIN-1 monoclonal antibody #11 (antibody, V domains shown)
VH: AVTLDESGGGLQMSRGGLSLVCKASGFDFSSYQMNWIRQAPGKGLEFVAAINKFGNSTGHGAAVKGRVTISRDNGQSTVRLQLNNLRAEDTAIYFCTKHAYGYCGSGTWCAAGEIDAWGHGTEVIVSS
VL: QAASTQPSSVSANPGETVEITCSGGGSYSYGWFQQKSPGSAPVTVIYYNNKRPSDIPSRFSGSKSGSTGTLTITGVQADDEAVYYCGSGDSTDTAVFGAGTTLTVLG
notes: Chicken hybridoma antibody; also called chicken monoclonal antibody #11
